Results on 6 sequences are retold here after the supplement of paper PMC12455559.

± gives the standard deviation of the averaged measurements.

Data set [1] in a line: melting temperature (DSF); higher = more thermostable. The method in brief:
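Candidate enzymes were expressed in E. coli C41(DE3), purified on nickel beads and released by SUMO protease cleavage. For differential scanning fluorimetry, 45 μL enzyme (0 to 0.3 mg/mL) was mixed with 5 μL 5X Sypro Orange in sealed PCR plates on a Bio-Rad CFX96 instrument. Fluorescence was read from 25 °C in steps of 0.3 °C per cycle (ramp 0.3 °C/s) for 250 cycles. The read-out is melting temperature.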

Data set [2] can be described thus: PET hydrolysis, aromatic products released after 48 h (umol product/mg enzyme); higher = more PET depolymerization activity. The method in brief: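 Hydrolysis activity toward PET is reported as supernatant aromatic product per mg enzyme. To measure it, 5 μg (50 μL) of tagless enzyme was incubated with 3.5 mg amorphous PET film or crystalline PET powder in 450 μL buffer for 48 h at 40 or 60 °C in sealed, unshaken plates. The product was quantified by absorbance at 260 and 280 nm relative to buffer blanks.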

A short description of data set [3]: purified protein yield per well (BCA); higher = higher soluble expression. The method in brief:
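Expression was done in E. coli C41(DE3), using 2 mL autoinduction cultures with 100 µg/mL kanamycin incubated at 37 °C for 2 h and at 18 °C for 40 h. Protein was purified on Ni-charged magnetic beads and released by SUMO protease cleavage. Yield of purified protein per well was measured with the Pierce Rapid Gold BCA kit; values below 25 ug (0.1 mg/mL) are below detection.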

[4] abbreviates: substrate: cryPow, 40 °C, pH 5.5.
Setting [5] is: substrate: cryPow, 40 °C, pH 6.5.
Setting [6] is: substrate: cryPow, 40 °C, pH 7.5.
[7] abbreviates: substrate: cryPow, 40 °C, pH 8.5.
[8] abbreviates: substrate: cryPow, 40 °C, pH 4.5.
The mark [9] stands for this setting: substrate: cryPow, 60 °C, pH 4.5.
Where [10] appears, read: substrate: cryPow, 60 °C, pH 5.5.
Setting [11] is: substrate: cryPow, 60 °C, pH 6.5.
[12] abbreviates: substrate: cryPow, 60 °C, pH 7.5.
The mark [13] stands for this setting: substrate: aFilm, 40 °C, pH 4.5.
Setting [14] is: substrate: aFilm, 40 °C, pH 5.5.
Setting [15] is: substrate: aFilm, 40 °C, pH 6.5.
Setting [16] is: substrate: aFilm, 40 °C, pH 7.5.
Where [17] appears, read: substrate: aFilm, 60 °C, pH 4.5.
The mark [18] stands for this setting: substrate: aFilm, 60 °C, pH 5.5.
Setting [19] is: substrate: aFilm, 60 °C, pH 6.5.
[20] abbreviates: substrate: aFilm, 60 °C, pH 7.5.

Regarding “QTNPFQRGPAPTEATLEATRGPMATSQFTVSRPSGYRAGTVYYPTNAGGTVGGIVVVPGYTAYQSDINWWGPRLASWGFIVMTIDTNSTLDQPASRSRQQLAALDQLATLSRTSSSPIYNKLDTNRMGVMGWSMGGGGSLISTENRPSLKASIPFAPWNSTENFSSVTVPTLIIACQDDSIAPVYSHASPFYNSMTRNPKQFLEVRGEGHYCANSSNSDKDFLGKKGVAWMKRFMDNDTRFTTFACTNQESSLDVSDFRTARCS [DP032]”, in data set [1], the melting temperature came out at 44.5 C. Besides, the PET hydrolysis in data set [2] (setting [4]), in data set [2] (setting [5]), in data set [2] (setting [6]) and in data set [2] (setting [7]) was below 3 throughout. For the same sequence, in data set [3], the “purified protein yield per well” value was 38 µg.

Consider “ADNPYQRGPDPTLASVSATRGTFATAQVSVPAGNGFASGVIYYPTDTSQGTFGGVAIVPGYSALFANEEAWMGPWLASFGFVVIGIETNSRTDSADARGTQLLAALDYLTQRSAVRDRVDPNRLSVIGHSAGGAGVLSALLRRPTLKAAVGLAPGSPVGDYSLYNDRVPTMFISGERDTTVTRSYLNGLYTTIPASTPSAWVEITGVDHLFATRANTTEMRVLIPWLKIFLDNDTRYTQFLCPQLADPGNVSMYRNKCPYVPPGGSSPSASPSTSPSASPSTSPSASPSVSPSPSPSPSPSASPSTSRACTASYRTVNSWSGGFQGEVTVTAGTSAINGWTVGWTLSGGQTINQLWNGTLSANGSAVRVTNVSYNGSIPASGSSTFGFLGTGTPSNPTLTCTSP [ESM040]”, for which the melting temperature in data set [1] stood at 59.8 C. Also, the PET hydrolysis in data set [2] (setting [8]), in data set [2] (setting [4]), in data set [2] (setting [5]), in data set [2] (setting [6]), in data set [2] (setting [9]) and in data set [2] (setting [10]) was below 3 each time. Also, the PET hydrolysis in data set [2] (setting [11]) and in data set [2] (setting [12]) was below 3 each time. The “purified protein yield per well” value in data set [3] is 526 µg.

For “MASIVVPGSAAAADNPYQRGPNPTQASVAANRGTFATAETSVGGGNGFGGAKIYYPTDTSQGTFGAIAVVPGYTATWAAEGAWMGHWLSSFGFVVIGIDTNSRNDNDTARGTQLLAALDYLTQRSSVRARVDPNRLAVMGHSMGGGGAISAALRRPTLKAAIGNAPFSPSQNLSTMRVPTALLAGQRDGTVTPSLVSGYYNQIPASTEKMYLELTGAGHGFPTSNNSVATRKWVPWMKIFLDQDTRYQQFLCPLLDNTGISAYRSTCPLIPGDPAPGTTFSLAGSASGKCVDVPGGTQTNGAGLIIWPCRGVTNQRWAQTAAGELRIYDNAKCMDANASGQGARVTINSCHGGASQKWTVNTNGTVTNSASGRCLEAVGTADDAPVVVNTCNGGSGQTWAKRA [TEP164]”, the melting temperature in data set [1] was 64 C. In addition, the PET hydrolysis was below 3 in data set [2] (setting [8]); 7 in data set [2] (setting [4]); 25 in data set [2] (setting [5]); 31 in data set [2] (setting [6]); below 3 in data set [2] (setting [9]); below 3 in data set [2] (setting [10]). Further, the PET hydrolysis in data set [2] (setting [11]) and in data set [2] (setting [12]) was below 3 each time. Besides, in data set [3], the “purified protein yield per well” value is 192 µg.

In turn, “ANPYERGPAPTKASIEATTGYFATAKVTVAKSSVSGFGGGTIYYPTSTTSGTFGAIALVPGFTNVQSAVAWLGPRVASQGFVVFIIDTNSVYDSPDSRGTQLLAALDYLTNTSTVKSRVDATRLGVMGYSMGGGGALSATKTRTSIKASVPMAPYHSTKTWTTVKTPTLIVTGQSDTTAPPASHGLAFYNSLSTSIDKAYMELKGAGHSAPTSANTTIAKYSISWFKRFIDDDTRYDQFLCPNPTDTTISSYKSTCNYS [DP082]” registered a melting temperature in data set [1] of 61.9 C. The PET hydrolysis in data set [2] (setting [4]) is 5; in data set [2] (setting [5]), 76; in data set [2] (setting [6]) it was 100; in data set [2] (setting [7]), 93; in data set [2] (setting [10]), below 3; in data set [2] (setting [11]), 13. Moreover, the PET hydrolysis was 22 in data set [2] (setting [12]) and 32 in data set [2] (substrate: cryPow, 60 °C, pH 8.5). The “purified protein yield per well” value in data set [3] was found to be 88 µg.

In turn, “ATNPYERGPAPTGTSVAADRGPFATAQLTVAKGNGFGGGVVYYPTDTSQGTFGAIAIAPGYGTEWRWYAWLGPRLASFGFVVLGIETNSLDDYADARGAQLLSALDWLVDSSPVRDRVDRTRLAVGGHSMGGGGALTAAIQRPSLMTAIGMAPYVPDGILRTIKIPTVLFGGQTDTTVTPSYLASAYATIPATVQRAYPEIANEGHGFAAGGGGGNSGAFARTMMIWMKVFIDKDTRYTGFLCPTLSNMSGISKYQASCPLGPTSGPSQSPSSSPSSTPSSSPSSTPSVSPSSTPSASPPGGPCRATYRTVNSWSGGYQGEVTVTAGGSAVNGWTVKWALSGGQSVTQVWNGTLSASGSNVSVSNASYNGSLGAGASTTFGFLANGTPSTPSPTCTSP [ESM021]” showed a melting temperature in data set [1] of 68.8 C. In addition, the PET hydrolysis in data set [2] (setting [13]), in data set [2] (setting [14]), in data set [2] (setting [15]), in data set [2] (setting [16]), in data set [2] (setting [17]) and in data set [2] (setting [18]) was below 3 in each case. The PET hydrolysis in data set [2] (setting [19]) was below 3; in data set [2] (setting [20]), below 3; in data set [2] (setting [8]), below 3; in data set [2] (setting [4]), 4.5 ± 0.71; in data set [2] (setting [5]), 9; in data set [2] (setting [6]) it was 9 ± 1.4. In addition, the PET hydrolysis in data set [2] (setting [9]), in data set [2] (setting [10]), in data set [2] (setting [11]) and in data set [2] (setting [12]) was below 3 each time. In data set [3], the “purified protein yield per well” value amounted to 275 µg.

“ASPYERGPNPTAASVSATTGPFAIASVSVARGNGFGGGVIYYPTATNQGTFGGIAISPGLNGTWAGIAWLGPRLASQGFVVFGIETNNLNDSPTSRGTQLLAALDYLTQRSTVRTRVDAGRLAVMGHSMGGGGALDAALRRPSLQAAIGNAPHLPSGTLSNDRVPTMIYAMQNDTLVPPSRLTTLYNSIPATTERGYILVTGAGHNYIGQPSTTLARTMIPWFKIFIDDDTRYSQFLCPMSNQSGISQYRNSCPLS [ESM160]” returned a melting temperature in data set [1] of 55.6 C. For the same sequence, the PET hydrolysis in data set [2] (setting [13]), in data set [2] (setting [14]), in data set [2] (setting [15]), in data set [2] (setting [16]), in data set [2] (setting [17]) and in data set [2] (setting [18]) was below 3 in each case. In addition, the PET hydrolysis is below 3 in data set [2] (setting [19]); below 3 in data set [2] (setting [20]); below 3 in data set [2] (setting [8]); 13.5 ± 2.1 in data set [2] (setting [4]); 43.5 ± 3.5 in data set [2] (setting [5]); 66.5 ± 0.71 in data set [2] (setting [6]). Moreover, the PET hydrolysis in data set [2] (setting [9]) is below 3; in data set [2] (setting [10]), below 3; in data set [2] (setting [11]), 7.5 ± 0.71; in data set [2] (setting [12]) it was 14 ± 1.4. Also, the “purified protein yield per well” value in data set [3] worked out at 400 µg.
